According to paper PMC6363788, “Crystal structures of human lysosomal EPDR1 reveal homology with the superfamily of bacterial lipoprotein transporters” (Communications Biology, 2019):

Target: the molecule itself
Assay: SEC; in solution; the only column and buffer told are those of the purification step (Superdex200 16/60, 10 mM Tris-HCl pH 8.0, 100 mM NaCl)

B1: Human EPDR1 (ependymin-related protein 1), glycosylated (natural protein, UniProt Q9UM22-1 38-224, looked up)
chain: APRPCQAPQQWEGRQVMYQQSSGRNSRALLSYDGLNQRVRVLDERKALIPCKRLFEYILLYKDGVMFQIDQATKQCSKMTLTQPWDPLDIPQNSTFEDQYSIGGPQEQITVQEWSDRKSARSYETWIGIYTVKDCYPVQETFTINYSVILSTRFFDIQLGIKDPSVFTPPSTCQMAQLEKMSEDCSW
modifications: N-glycan at Asn130; disulfide bonds C42/C172, C113/C210, C88/C222
notes: EPDR1 (MERP-1; UCC1), human, Uniprot Q9UM22, residues 38-224; The N-terminal tag of the PB-T-PAF plasmid (secretion signal, protein A tag, thrombin site) was removed with thrombin; The six C-terminal histidines have no stated cleavage site, and the protein went through a second Ni2+ step after thrombin, so they were probably kept; also called MERP-1; UCC1; not shown: protein A, N-terminal, cleaved
stoichiometry N: 2
